Measured values from patent US20220220215A1 (CRESCENDO BIOLOGICS, published 2022).
Changes are numbered by the printed parent chain. Names may count otherwise.

B1: TPP-1017: CD137A-6GS-PD138G7(G109D)-6GS-HSA2-His (bispecific antibody)
chain: EVQLVESGGGLVQPGGSLRLSCAASGFTLSNYWMNWVRQAPGKGLEWVANINQDGSERYYVDSVKGRFTISRDNAKNSLYLQMNSLRAEDTAVYYCARGGEGYGVDHYGLDVSGQGTTVTVSSGGGGSGGGGSGGGGSGGGGSGGGGSGGGGSEVQLVESGGGVVRPGGSLRLSCAASGFTFDDYAMSWVRQAPGKGLEWVSGITWNGGSTGYADSVKDRFTISRDNAKNSLYLQMNSLRAEDTALYYCVRDKYSYAWSYDDFDIWGQGTMVTVSSGGGGSGGGGSGGGGSGGGGSGGGGSGGGGSEVQLVESGGGLVKPGGSLRLSCAASGFTFSNYNMNWVRQAPGKGLEWVSSISSAGTHIYYADSVKGRFTISRDNAKNSLYLQMNSLRAEDTAVYYCARDPHSTGWYKDFDYWGQGTLVTVSSAAAHHHHHH
B2: TPP-1012 PD138G7(G109D)-6GS-HSA1-6GS-CD137D-His (bispecific antibody)
chain: EVQLVESGGGVVRPGGSLRLSCAASGFTFDDYAMSWVRQAPGKGLEWVSGITWNGGSTGYADSVKDRFTISRDNAKNSLYLQMNSLRAEDTALYYCVRDKYSYAWSYDDFDIWGQGTMVTVSSGGGGSGGGGSGGGGSGGGGSGGGGSGGGGSEVQLVESGGGLVQPGRSLRLSCAASGFTFHHYAMHWVRQAPGKGLEWVSGISWNGNKITYADSVKGRFTISRDNAKNSLYLQMNSLRAEDTALYYCVRDSSLFIVGAPTFEHWGRGTLVTVSSGGGGSGGGGSGGGGSGGGGSGGGGSGGGGSEVQLVESGGGVVQPGGSLRLSCAASGFTFSNYGMHWVRQAPGKGLEWVAVISNDGNTKTYADSVKGRFTISRDNSKNTLYLQMNSLRAEDTAVYYCAQDETTTVTASYYFDYWGQGTLVTVSSAAAHHHHHH
B3: TPP-1291 PD138G7(G109D)-6GS-CD137A-6GS-HSA1943 (bispecific antibody)
chain: EVQLVESGGGVVRPGGSLRLSCAASGFTFDDYAMSWVRQAPGKGLEWVSGITWNGGSTGYADSVKDRFTISRDNAKNSLYLQMNSLRAEDTALYYCVRDKYSYAWSYDDFDIWGQGTMVTVSSGGGGSGGGGSGGGGSGGGGSGGGGSGGGGSEVQLVESGGGLVQPGGSLRLSCASGFTLSNYWMNWVRQAPGKGLEWVANINQDGSERYYVDSVKGRFTISRDNAKNSLYLQMNSLRAEDTAVYYCARGGEGYGVDHYGLDVSGQGTTVTVSSGGGGSGGGGSGGGGSGGGGSGGGGSGGGGSEVQLLESGGGLVKPGGSLRLSCAASGFTVSSYTMNWVRQAPGKGLEWVSSISSSGRYIYYADSVKGRFTISRDNAKNSLYLQMNSLRAEDTAVYYCARDPRMVGNPHEFDIWGQGTMVTVSS
B4: TPP-1009: PDA-6GS-hsa1-6GS-CD137D-His (bispecific antibody)
chain: EVQLVESGGGLVQPGRSLRLSCAASGFTFDDYALHWVRQAPGKDLEWVSGISWNGGSYGYADSVKGRFTISRDNAKNSLYLQMNSLRAEDTALYYCVREKGPGLTGSTADYYGLDAWGQGTMVTVSSGGGGSGGGGSGGGGSGGGGSGGGGSGGGGSEVQLVESGGGLVQPGRSLRLSCAASGFTFHHYAMHWVRQAPGKGLEWVSGISWNGNKITYADSVKGRFTISRDNAKNSLYLQMNSLRAEDTALYYCVRDSSLFIVGAPTFEHWGRGTLVTVSSGGGGSGGGGSGGGGSGGGGSGGGGSGGGGSEVQLVESGGGVVQPGGSLRLSCAASGFTFSNYGMHWVRQAPGKGLEWVAVISNDGNTKTYADSVKGRFTISRDNSKNTLYLQMNSLRAEDTAVYYCAQDETTTVTASYYFDYWGQGTLVTVSSAAAHHHHHH
B5: TPP-1016: CD137A-6GS-PDA2-6GS-HSA1-His (bispecific antibody)
chain: EVQLVESGGGLVQPGGSLRLSCAASGFTLSNYWMNWVRQAPGKGLEWVANINQDGSERYYVDSVKGRFTISRDNAKNSLYLQMNSLRAEDTAVYYCARGGEGYGVDHYGLDVSGQGTTVTVSSGGGGSGGGGSGGGGSGGGGSGGGGSGGGGSEVQLVESGGGVVRPGGSLRLSCAASGFTFDDYAMSWVRQAPGKGLEWVSGITWNAGSTGYADSVKGRFTISRDNAKNSLYLQMNSLRAEDTALYYCVRDKYSYAWSYDDFDIWGQGTMVTVSSGGGGSGGGGSGGGGSGGGGSGGGGSGGGGSEVQLVESGGGLVQPGRSLRLSCAASGFTFHHYAMHWVRQAPGKGLEWVSGISWNGNKITYADSVKGRFTISRDNAKNSLYLQMNSLRAEDTALYYCVRDSSLFIVGAPTFEHWGRGTLVTVSSAAAHHHHHH
B6: TPP-1014: CD137A-6GS-PDA-6GS-HSA-His (bispecific antibody)
chain: EVQLVESGGGLVQPGGSLRLSCAASGFTLSNYWMNWVRQAPGKGLEWVANINQDGSERYYVDSVKGRFTISRDNAKNSLYLQMNSLRAEDTAVYYCARGGEGYGVDHYGLDVSGQGTTVTVSSGGGGSGGGGSGGGGSGGGGSGGGGSGGGGSEVQLVESGGGLVQPGRSLRLSCAASGFTFDDYALHWVRQAPGKDLEWVSGISWNGGSYGYADSVKGRFTISRDNAKNSLYLQMNSLRAEDTALYYCVREKGPGLTGSTADYYGLDAWGQGTMVTVSSGGGGSGGGGSGGGGSGGGGSGGGGSGGGGSEVQLVESGGGLVQPGRSLRLSCAASGFTFHHYAMHWVRQAPGKGLEWVSGISWNGNKITYADSVKGRFTISRDNAKNSLYLQMNSLRAEDTALYYCVRDSSLFIVGAPTFEHWGRGTLVTVSSAAAHHHHHH
B7: TPP-1294 PDBlocker1.92-6GS-CD137A-7-6GS-HSA3 (bispecific antibody)
chain: EVQLVESGGGLVKPGGSLRLSCAASGFTFSDESMTWMRQAPGKGLEWVSYISSGGGVKFYADSVKGRFTISRDNAKNSLYLQMNSLRAEDTAVYYCAREAPLRLGESPHDAFDISGQGTMVTVSSGGGGSGGGGSGGGGSGGGGSGGGGSGGGGSEVQLVESGGGLVQPGGSLRLSCAASGFTLSNYWMNWVRQAPGKGLEWVANINQDGSERYYVDSVKGRFTISRDNAKNSLYLQMNSLRAEDTAVYYCARGGEGYGVDHYGLDVSGQGTTVTVSSGGGGSGGGGSGGGGSGGGGSGGGGSGGGGSEVQLLESGGGLVKPGGSLRLSCAASGFTVSSYTMNWVRQAPGKGLEWVSSISSSGRYIYYADSVKGRFTISRDNAKNSLYLQMNSLRAEDTAVYYCARDPRMVGNPHEFDIWGQGTMVTVSS
B8: TPP-1023: CD137A-6GS-HSA3-6GS-PDA-His (bispecific antibody)
chain: EVQLVESGGGLVQPGGSLRLSCAASGFTLSNYWMNWVRQAPGKGLEWVANINQDGSERYYVDSVKGRFTISRDNAKNSLYLQMNSLRAEDTAVYYCARGGEGYGVDHYGLDVSGQGTTVTVSSGGGGSGGGGSGGGGSGGGGSGGGGSGGGGSEVQLLESGGGLVKPGGSLRLSCAASGFTVSSYTMNWVRQAPGKGLEWVSSISSSGRYIYYADSVKGRFTISRDNAKNSLYLQMNSLRAEDTAVYYCARDPRMVGNPHEFDIWGQGTMVTVSSGGGGSGGGGSGGGGSGGGGSGGGGSGGGGSEVQLVESGGGLVQPGRSLRLSCAASGFTFDDYALHWVRQAPGKDLEWVSGISWNGGSYGYADSVKGRFTISRDNAKNSLYLQMNSLRAEDTALYYCVREKGPGLTGSTADYYGLDAWGQGTMVTVSSAAAHHHHHH
B9: TPP-1011: PD138G7(G109D)-6GS-HSA3-6GS-CD137D-His (bispecific antibody)
chain: EVQLVESGGGVVRPGGSLRLSCAASGFTFDDYAMSWVRQAPGKGLEWVSGITWNGGSTGYADSVKDRFTISRDNAKNSLYLQMNSLRAEDTALYYCVRDKYSYAWSYDDFDIWGQGTMVTVSSGGGGSGGGGSGGGGSGGGGSGGGGSGGGGSEVQLLESGGGLVKPGGSLRLSCAASGFTVSSYTMNWVRQAPGKGLEWVSSISSSGRYIYYADSVKGRFTISRDNAKNSLYLQMNSLRAEDTAVYYCARDPRMVGNPHEFDIWGQGTMVTVSSGGGGSGGGGSGGGGSGGGGSGGGGSGGGGSEVQLVESGGGVVQPGGSLRLSCAASGFTFSNYGMHWVRQAPGKGLEWVAVISNDGNTKTYADSVKGRFTISRDNSKNTLYLQMNSLRAEDTAVYYCAQDETTTVTASYYFDYWGQGTLVTVSSAAAHHHHHH
B10: TPP-1052: PDA2-6GS-HSA3-6GS-CD137D-His (bispecific antibody)
chain: B9 chain with G55A, D66G
B11: TPP-1025: CD137A-6GS-HSA3-2-6GS-PDA2-His (bispecific antibody)
chain: EVQLVESGGGLVQPGGSLRLSCAASGFTLSNYWMNWVRQAPGKGLEWVANINQDGSERYYVDSVKGRFTISRDNAKNSLYLQMNSLRAEDTAVYYCARGGEGYGVDHYGLDVSGQGTTVTVSSGGGGSGGGGSGGGGSGGGGSGGGGSGGGGSEVQLLESGGGLVKPGGSLRLSCAASGFTVSSYTMNWVRQAPGKGLEWVSSISSSGRYIYYADSVKGRFTISRDNAKNSLYLQMNSLRAEDTAVYYCARDPRMVGNPHEFDIWGQGTMVTVSSGGGGSGGGGSGGGGSGGGGSGGGGSGGGGSEVQLVESGGGVVRPGGSLRLSCAASGFTFDDYAMSWVRQAPGKGLEWVSGITWNAGSTGYADSVKGRFTISRDNAKNSLYLQMNSLRAEDTALYYCVRDKYSYAWSYDDFDIWGQGTMVTVSSAAAHHHHHH
B12: TPP-1015: CD137A-6GS-PDA2-6GS-HSA3-His (bispecific antibody)
chain: EVQLVESGGGLVQPGGSLRLSCAASGFTLSNYWMNWVRQAPGKGLEWVANINQDGSERYYVDSVKGRFTISRDNAKNSLYLQMNSLRAEDTAVYYCARGGEGYGVDHYGLDVSGQGTTVTVSSGGGGSGGGGSGGGGSGGGGSGGGGSGGGGSEVQLVESGGGVVRPGGSLRLSCAASGFTFDDYAMSWVRQAPGKGLEWVSGITWNAGSTGYADSVKGRFTISRDNAKNSLYLQMNSLRAEDTALYYCVRDKYSYAWSYDDFDIWGQGTMVTVSSGGGGSGGGGSGGGGSGGGGSGGGGSGGGGSEVQLLESGGGLVKPGGSLRLSCAASGFTVSSYTMNWVRQAPGKGLEWVSSISSSGRYIYYADSVKGRFTISRDNAKNSLYLQMNSLRAEDTAVYYCARDPRMVGNPHEFDIWGQGTMVTVSSAAAHHHHHH
B13: TPP-1018: CD137A-6GS-PD138G7(G109D)-6GS-HSA3-His (bispecific antibody)
chain: B12 chain with A208G, G219D

The binders below were run against human CD137 expressed on cells (Jurkat human CD137 NF-kB luciferase reporter cells; human CD8+ T cells) (human, UniProt Q07011 24-255) (assay: cell-based or functional assay).
In the case of B1, the “Jurkat-CD137/CHO-PD-1 Reporter Assay EC50” value is reported as 0.21 nM.
With B2 the “Jurkat-CD137/CHO-PD-1 Reporter Assay EC50” value was 5.29 nM.
For B3, the “Jurkat-CD137/CHO-PD-1 Reporter Assay EC50” value was 0.0809 nM.
With B4 the “Jurkat-CD137/CHO-PD-1 Reporter Assay EC50” value was 34.7 nM.
In the case of B5, the “Jurkat-CD137/CHO-PD-1 Reporter Assay EC50” value is reported as 0.698 nM.
In the case of B6, the “Jurkat-CD137/CHO-PD-1 Reporter Assay EC50” value is reported as 0.548 nM.
In the case of B7, the “Jurkat-CD137/CHO-PD-1 Reporter Assay EC50” value is reported as 0.0323 nM.
For B8, the “Jurkat-CD137/CHO-PD-1 Reporter Assay EC50” value was 0.437 nM.
In the case of B9, the “Jurkat-CD137/CHO-PD-1 Reporter Assay EC50” value is reported as 4.11 nM.
B10 was tested, and the “Jurkat-CD137/CHO-PD-1 Reporter Assay EC50” value was 3.26 nM.
B11 was tested, and the “Jurkat-CD137/CHO-PD-1 Reporter Assay EC50” value was 0.509 nM.
In the case of B12, the “Jurkat-CD137/CHO-PD-1 Reporter Assay EC50” value is reported as 0.507 nM.
In the case of B13, the “Jurkat-CD137/CHO-PD-1 Reporter Assay EC50” value is reported as 0.273 nM.
